Test results taken from article PMC10450202, “Updated protein domain annotation of the PARP protein family sheds new light on biological function”.

Legend:
[1] = molecular target: T1, PARP14 WWE-ART (human, UniProt Q460N5 1459-1801); assay: EMSA; 0.5 uM RNA, 1-5 uM protein, 5 mM Mg2+; EMSA: 20 mM HEPES-KOH pH 7.6, 5 mM MgCl2, 1 mM DTT, 20% glycerol, 1 h room temperature, 6% native PAGE; NMR: 10 mM sodium phosphate, 222 mM NaCl, 2.7 mM KCl, 2; conditions: protein: recombinant; label: 5' Cy3; single strand
T1 sequence: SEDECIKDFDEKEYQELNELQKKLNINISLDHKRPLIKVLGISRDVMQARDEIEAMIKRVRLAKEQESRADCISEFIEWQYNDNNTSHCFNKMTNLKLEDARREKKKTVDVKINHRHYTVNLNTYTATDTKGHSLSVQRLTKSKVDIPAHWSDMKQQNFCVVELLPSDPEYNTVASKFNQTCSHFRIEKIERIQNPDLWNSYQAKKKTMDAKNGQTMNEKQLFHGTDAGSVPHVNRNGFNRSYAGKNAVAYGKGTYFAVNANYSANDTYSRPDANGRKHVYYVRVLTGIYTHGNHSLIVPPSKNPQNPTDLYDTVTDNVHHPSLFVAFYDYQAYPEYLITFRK

[2] = molecular target: T2, PARP14 KH8-WWE-ART (human, UniProt Q460N5 1453-1801); assay: EMSA; 0.5 uM RNA, 1-5 uM protein, 5 mM Mg2+; possible slight nuclease contamination; EMSA: 20 mM HEPES-KOH pH 7.6, 5 mM MgCl2, 1 mM DTT, 20% glycerol, 1 h room temperature, 6% native PAGE; NMR: 10 mM sodium phosphate, 222 mM NaCl, 2.7 mM KCl, 2; conditions: protein: recombinant; label: 5' Cy3; single strand
T2 sequence: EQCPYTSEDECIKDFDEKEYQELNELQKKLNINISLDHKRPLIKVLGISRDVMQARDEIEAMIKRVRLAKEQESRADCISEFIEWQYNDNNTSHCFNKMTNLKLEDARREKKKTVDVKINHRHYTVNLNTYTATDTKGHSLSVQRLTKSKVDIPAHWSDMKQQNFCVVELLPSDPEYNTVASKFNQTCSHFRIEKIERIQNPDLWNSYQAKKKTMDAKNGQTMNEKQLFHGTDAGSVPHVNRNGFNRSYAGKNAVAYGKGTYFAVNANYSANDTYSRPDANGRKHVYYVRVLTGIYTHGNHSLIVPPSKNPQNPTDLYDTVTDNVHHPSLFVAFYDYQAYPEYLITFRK

[3] = molecular target: T3, PARP14 KH1-KH2 (human, UniProt Q460N5 316-468); assay: EMSA; 0.5 uM RNA, 1-5 uM protein, 5 mM Mg2+; efficient binding at micromolar concentrations; EMSA: 20 mM HEPES-KOH pH 7.6, 5 mM MgCl2, 1 mM DTT, 20% glycerol, 1 h room temperature, 6% native PAGE; NMR: 10 mM sodium phosphate, 222 mM NaCl, 2.7 mM KCl, 2; conditions: protein: recombinant; label: 5' Cy3; single strand
T3 sequence: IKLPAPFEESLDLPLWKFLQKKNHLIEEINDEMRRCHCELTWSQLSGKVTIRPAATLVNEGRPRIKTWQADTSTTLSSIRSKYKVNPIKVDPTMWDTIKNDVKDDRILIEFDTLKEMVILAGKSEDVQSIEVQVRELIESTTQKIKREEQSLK

[4] = molecular target: PARP1 full-length (human, UniProt P09874 2-1014, V762A); assay: NMR; 35.5 uM protein, 40 uM DNA; 15N-1H TROSY, 25 C; EMSA: 20 mM HEPES-KOH pH 7.6, 5 mM MgCl2, 1 mM DTT, 20% glycerol, 1 h room temperature, 6% native PAGE; NMR: 10 mM sodium phosphate, 222 mM NaCl, 2.7 mM KCl, 2; conditions: protein: recombinant; tags: N-terminal His6 (MKHHHHHHKMQ); dumbbell: two hairpins, mimics single-strand break
Chain of PARP1 full-length (P09874 2-1014 V762A): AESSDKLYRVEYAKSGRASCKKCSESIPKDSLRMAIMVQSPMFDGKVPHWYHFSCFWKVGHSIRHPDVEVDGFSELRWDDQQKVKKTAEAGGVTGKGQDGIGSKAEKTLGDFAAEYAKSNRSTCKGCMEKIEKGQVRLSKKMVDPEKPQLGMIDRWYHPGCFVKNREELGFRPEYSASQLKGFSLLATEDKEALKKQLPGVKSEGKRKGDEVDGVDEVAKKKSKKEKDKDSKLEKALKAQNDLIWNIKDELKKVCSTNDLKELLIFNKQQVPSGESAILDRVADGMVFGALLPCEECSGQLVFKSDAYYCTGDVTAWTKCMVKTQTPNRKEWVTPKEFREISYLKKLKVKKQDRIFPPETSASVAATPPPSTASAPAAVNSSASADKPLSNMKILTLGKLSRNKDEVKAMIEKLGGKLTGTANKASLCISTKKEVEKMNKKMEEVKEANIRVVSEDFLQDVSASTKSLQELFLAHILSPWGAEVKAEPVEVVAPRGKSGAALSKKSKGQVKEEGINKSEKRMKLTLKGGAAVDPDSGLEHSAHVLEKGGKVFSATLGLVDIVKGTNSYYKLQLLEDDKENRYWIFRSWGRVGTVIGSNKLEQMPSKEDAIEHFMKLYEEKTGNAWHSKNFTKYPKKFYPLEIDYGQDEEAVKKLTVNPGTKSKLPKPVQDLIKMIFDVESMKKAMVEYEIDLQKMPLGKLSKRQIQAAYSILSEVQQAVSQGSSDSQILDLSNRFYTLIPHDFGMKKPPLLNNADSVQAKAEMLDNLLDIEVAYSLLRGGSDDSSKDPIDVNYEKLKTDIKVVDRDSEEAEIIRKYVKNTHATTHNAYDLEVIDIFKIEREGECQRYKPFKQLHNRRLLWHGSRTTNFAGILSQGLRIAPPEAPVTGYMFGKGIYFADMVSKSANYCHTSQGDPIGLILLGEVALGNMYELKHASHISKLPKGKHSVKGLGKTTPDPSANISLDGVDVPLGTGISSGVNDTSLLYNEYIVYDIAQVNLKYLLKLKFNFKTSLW

B1: E21 RNA (ssRNA)
RNA: GUGGCGCGGAGACUUAGAGAA
[1]
  binding result: no binding
[2]
  binding result: binds
[3]
  binding result: binds

B2: 45-nt DNA dumbbell (structured_DNA)
DNA: GCTGGCTTCGTAAGAAGCCAGCTCGCGGTCAGCTTGCTGACCGCG
modifications: 5' phosphate
[4]
  binding result: binds
